Laboratory results as given in the RNAGym collection of RNA variant scans (doi:10.1093/nar/gkz1192).

B1: CPEB3 Ribozyme (parent)
chain: UAACAGGGGGCCACAGCAGAAGCGUUCACGUCGCAGCCCCUGUCAGAUUCUGGUGAAUCUGCGAAUUCUGCUGUAUAUCUC

Variants of: B1
Assay: self-cleavage, relative activity (ratio to wild type); higher = more cleavage; in vitro, sequencing
In short: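 Libraries of CPEB3 self-cleaving ribozyme mutants came from rounds of error-prone PCR and carried barcodes, which DNA sequencing matched to variants. In vitro transcription used T7 RNA polymerase at 37°C for 5 hours, with a further 15 min in DNase I before EDTA stopped the reaction; the ribozymes cleaved during both steps. The RNA was reverse transcribed with template switching and sequenced on Illumina. Relative activity is the cleaved/total read fraction of a variant divided by that of the unmutated ribozyme, averaged over three batches with at least 5 reads.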
UAACAGGGGGCCACAGCACAAGCGUUCACGUCGCAGCCCCUGUCAGAUUCUGAUGAAUCUGCGAAUUCUGCUGUAUAUCUC [G19C G53A] showed a self-cleavage of 0.09. For UAACAGGGGGCCACAGCAUAAGCGUUCACGUCGCAGCCCCUGUCGGAUUCUGGUGAAUCUGCGAAUUCUGCUGUAUAUCUC [G19U A45G], the self-cleavage was 0.08. In the case of UAACAGGGGGCCACAGCAUAAGCGUUCACGUCGCAGCCCCUGUCCGAUUCUGGUGAAUCUGCGAAUUCUGCUGUAUAUCUC [G19U A45C], the self-cleavage is reported as 0.22. Work on UAACAGGGGGCCACAGCAUAAGCGUUCACGUCGCAGCCCCUGUCUGAUUCUGGUGAAUCUGCGAAUUCUGCUGUAUAUCUC [G19U A45U] yielded a self-cleavage of 0.2. Variant UAACAGGGGGCCACAGCACAAACGUUCACGUCGCAGCCCCUGUCAGAUUCUGGUGAAUCUGCGAAUUCUGCUGUAUAUCUC [G19C G22A] has a self-cleavage of 0.22. In the case of UAACAGGGGGCCACAGCACAAGCAUUCACGUCGCAGCCCCUGUCAGAUUCUGGUGAAUCUGCGAAUUCUGCUGUAUAUCUC [G19C G24A], the self-cleavage is reported as 0.11. Variant UAACAGGGGGCCACAGCACAAGCGUUCACCUCGCAGCCCCUGUCAGAUUCUGGUGAAUCUGCGAAUUCUGCUGUAUAUCUC [G19C G30C] has a self-cleavage of 0.25. Variant UAACAGGGGGCCACAGCAUAAGCGUUCACGUCGCAGCCCCUGUUAGAUUCUGGUGAAUCUGCGAAUUCUGCUGUAUAUCUC [G19U C44U] has a self-cleavage of 0.18. Work on UAACAGGGGGCCACAGCAUAAGCGUUCACGUCGCAGCCCCUGUAAGAUUCUGGUGAAUCUGCGAAUUCUGCUGUAUAUCUC [G19U C44A] yielded a self-cleavage of 0.43. UAACAGGGGGCCACAGCAUAGGCGUUCACGUCGCAGCCCCUGUCAGAUUCUGGUGAAUCUGCGAAUUCUGCUGUAUAUCUC [G19U A21G] showed a self-cleavage of 0.2. In the case of UAACAGGGGGCCACAGCAUAAGCGUUCACGUCGCAGCCCCUGUCAGAUUCUGGUGAAUCUGCGAAUUCUGCUGUAUAUCUU [G19U C81U], the self-cleavage is reported as 0.34. With UAACAGGGGGCCACAGCAUAAGCGUUCACGUCGCAGCCCCUGUCAGAUUCUGGUGUAUCUGCGAAUUCUGCUGUAUAUCUC [G19U A56U] the self-cleavage was 0.14. In the case of UAACAGGGGGCCACAGCAUAAGCGUUCACGUCGCAGCCCCUGUCAGAUUCUGGUGGAUCUGCGAAUUCUGCUGUAUAUCUC [G19U A56G], the self-cleavage is reported as 0.5. UAACAGGGGGCCACAGCAUAAGCGUUCACGUCGCAGCCCCUGUCAGAUUCUGGUGAAUCUGCGAGUUCUGCUGUAUAUCUC [G19U A65G] showed a self-cleavage of 0.26. Variant UAACAGGGGGCCACAGCAUAAGCGUUCACGUCGCAGCCCCUGUCAGAUUCUGGUGAAUCUGCGAUUUCUGCUGUAUAUCUC [G19U A65U] has a self-cleavage of 0.09. In the case of UAACAGGGGGCCACAGCACAAGCGUUCACGUCGCAGCCCCUGUCAGAUUCUGGUGAAUCUGCGAAUCCUGCUGUAUAUCUC [G19C U67C], the self-cleavage is reported as 0.21. With UAACAGGGGGCCACAGCAUAAGCGUUCACGUCGCAGCCCCUGUCAGAUUCUGGUGAAUCUGCGUAUUCUGCUGUAUAUCUC [G19U A64U] the self-cleavage was 0.15. For UAACAGGGGGCCACAGCACAAGCGUUCACGUCGCAGCCCCUGUCAGAUUCUGGUGAAUCCGCGAAUUCUGCUGUAUAUCUC [G19C U60C], the self-cleavage was 0.15. For UAACAGGGGGCCACAGCACAAGCGUUCACGUCGCAGCCCCUGUCAGAUUCUGGUGAAUCAGCGAAUUCUGCUGUAUAUCUC [G19C U60A], the self-cleavage was 0.16. UAACAGGGGGCCACAGCACAAGCGUUCACGUCGCAGCCCCUGUCAGAUUCUGGUGAAUCUGCGAAUUUUGCUGUAUAUCUC [G19C C68U] showed a self-cleavage of 0.63. With UAACAGGGGGCCACAGCACAAGCGUUCACGUCGCAGCCCCUGUCAGAUUCUGGUGAAUCUGCGAAUUCUGCUGUUUAUCUC [G19C A75U] the self-cleavage was 0.29. With UAACAGGGGGCCACAGCAUGAGCGUUCACGUCGCAGCCCCUGUCAGAUUCUGGUGAAUCUGCGAAUUCUGCUGUAUAUCUC [G19U A20G] the self-cleavage was 0.29. In the case of UAACAGGGGGCCACAGCAUUAGCGUUCACGUCGCAGCCCCUGUCAGAUUCUGGUGAAUCUGCGAAUUCUGCUGUAUAUCUC [G19U A20U], the self-cleavage is reported as 0.42. For UAACAGGGGGCCACAGCACAAGCGUUCACGUCGCAGCCCCUGUCAGAUACUGGUGAAUCUGCGAAUUCUGCUGUAUAUCUC [G19C U49A], the self-cleavage was 0.36. Variant UAACAGGGGGCCACAGCACAAGCGUUCACGUCGCAGCCCCUGUCAGAUUCUGGUGAAUCUGCGAAUUCUGCUGUAUACCUC [G19C U78C] has a self-cleavage of 0.71. Work on UAACAGGGGGCCACAGCAUAAGCGUUCACGUCGCAGCCCCUGUCAGAUUCUGGUGAAUCUGCGAAUUCUGCUAUAUAUCUC [G19U G73A] yielded a self-cleavage of 0.51. UAACAGGGGGCCACAGCAUAAGCGUUCACGUCGCAGCCCCUGUCAGAUUCUGGUGAAUCUCCGAAUUCUGCUGUAUAUCUC [G19U G61C] showed a self-cleavage of 0.13. UAACAGGGGGCCACAGCAUAAGCGUUCACGUCGCAGCCCCUGUCAGAUUCUGGUGAAUCUACGAAUUCUGCUGUAUAUCUC [G19U G61A] gave a self-cleavage of 0.3. UAACAGGGGGCCACAGCAUAAGCGUUCACGUCGCAGCCCCUGUCAGAUUCUGGUGAAUCUGCUAAUUCUGCUGUAUAUCUC [G19U G63U] gave a self-cleavage of 0.28. UAACAGGGGGCCACAGCAUAAGCGUUCACGUCGCAGCCCCUGUCAGAUUCUGGUGAAUCUGCGAAUUCUGCUGUUUAUCUC [G19U A75U] showed a self-cleavage of 0.28. For UAACAGGGGGCCACAGCAUAAGCGUUCACGUCGCACCCCCUGUCAGAUUCUGGUGAAUCUGCGAAUUCUGCUGUAUAUCUC [G19U G36C], the self-cleavage was 0.19. In the case of UAACAGGGGGCCACAGCAUAAGCGUUCACGUCGCAACCCCUGUCAGAUUCUGGUGAAUCUGCGAAUUCUGCUGUAUAUCUC [G19U G36A], the self-cleavage is reported as 0.18. For UAACAGGGGGCCACAGCAUAAGCGUUCGCGUCGCAGCCCCUGUCAGAUUCUGGUGAAUCUGCGAAUUCUGCUGUAUAUCUC [G19U A28G], the self-cleavage was 0.14. For UAACAGGGGGCCACAGCAUAAGCGUUCUCGUCGCAGCCCCUGUCAGAUUCUGGUGAAUCUGCGAAUUCUGCUGUAUAUCUC [G19U A28U], the self-cleavage was 0.08.
